In assay [1] the target is T1, pE3-16 (Pyr-…-biotin) (human).
T1 construct: also called pE3-16B
T1 peptide: [pGlu]FRHDSGYEVHHQK-biotin
Description: SPR (BIACORE 2000), antibody captured, peptide injected. (In general: SPR reads the build-up and loss of mass on a sensor chip optically.)

Assay [2] concerns the target T2, Aβ1-40 (UniProt P05067 672-711).
T2 construct: domain: Aβ1-40; The numbers 1-40 count on the Aβ peptide, not on the APP precursor
Described as above.

Square brackets hold non-standard residues; d marks the D form. pGlu = O=C1CC[C@@H](C(=O)O)N1

T2 sequence (P05067 672-711 limits assumed): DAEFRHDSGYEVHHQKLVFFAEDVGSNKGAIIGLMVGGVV

B1: Antibody II (R17L) (antibody, human IgG1, kappa, V domains shown)
VH: QVQLVQSGAEVKKPGSSVKVSCKASGYTFTRYYINWVRQAPGQGLEWMGWINPGSGNTKYNEKFKGRVTITADESTSTAYMELSSLRSEDTAVYYCAREGTTVYWGQGTTVTVSS
VL: DIVMTQTPLSLSVTPGQPASISCKSSQSLLYSRGKTYLNWLLQKPGQSPQLLIYAVSKLDSGVPDRFSGSGSGTDFTLKISRVEAEDVGVYYCVQGTHYPFTFGQGTKLEIKR
notes: Human engineered anti-N3pGlu Aβ monoclonal antibody
For B1, the values for the binding result in assay [1] and in assay [2] were “binds” and “no binding”, respectively.

B2: Antibody VII (mE8c) (antibody, mouse IgG2a, kappa, V domains shown)
VH: EVQLLESGPELVKPGASVKISCKASGYTFTDYYINWVKQRPGQGLEWIGWINPGSGNTKYNEKFKGKATLTVDTSSSTAYMQLSSLTSEDSAVYFCTREGETVYWGQGTTLTVSS
VL: NIVLTQTPLTLSVTIGQPASISCKSSQSLLYSRGKTYLNWLLQRPGQSPKRLIYAVSKLDSGVPDRFIGSGSGTDFTLKISRVEAEDLGVYYCVQGTHYPFTFGSGTKLEIKR
notes: Mouse IgG2a isotype of the mE8 clone; also called mE8c - IgG2a; parental mouse antibody
In the case of B2, the binding result is on record as “binds” in assay [1] and “no binding” in assay [2].

B3: Antibody I (B12L) (antibody, human IgG1, kappa, V domains shown)
VH: QVQLVQSGAEVKKPGSSVKVSCKASGYDFTRYYINWVRQAPGQGLEWMGWINPGSGNTKYNEKFKGRVTITADESTSTAYMELSSLRSEDTAVYYCAREGITVYWGQGTTVTVSS
VL: DIVMTQTPLSLSVTPGQPASISCKSSQSLLYSRGKTYLNWLLQKPGQSPQLLIYAVSKLDSGVPDRFSGSGSGTDFTLKISRVEAEDVGVYYCVQGTHYPFTFGQGTKLEIKR
notes: as for B1
With B3, the binding result in assay [1] was “binds”; in assay [2], “no binding”.
